B1: HDV Ribozyme (parent)
chain: GGCCGGCAUGGUCCCAGCCUCCUCGCUGGCGCCGGCUGGGCAACAUUCCGAGGGGACCGUCCCCUCGGUAAUGGCGAAUGGGACCCA

Variants of: B1
Test: self-cleavage, relative activity (ratio to wild type); higher = more cleavage; co-transcriptional

First: GGCCGGCAUGGUCCCAGCCUCCUCGCUGGCGCCGCCUGGGCAACAUUCCGAGGGGACCAUCCCCUCGGUAAUGGCGAAUGGGACCCA [G35C G59A]
Second: GGCCGGCAUGGUCCCAGCCUCCUCGCUGGCGCCGACUGGGCAACAUUCCGAGGCGACCGUCCCCUCGGUAAUGGCGAAUGGGACCCA [G35A G54C]
The self-cleavage of the first is lower: 0.256 for the first, 0.69 for the second.

Going from GGCCGGCAUGGUCCCAGCCUCCUCGCUGGCGCCGACUGGGCAACAUUCCGAGGGGACCGUCUCCUCGGUAAUGGCGAAUGGGACCCA [G35A C62U] to GGCCGGCAUGGUCCCAGCCUCCUCGCUGGCGCCGACUGGGCAACAUUCCGAGGGGACCGUCGCCUCGGUAAUGGCGAAUGGGACCCA [G35A C62G], the self-cleavage falls from 0.665 to 0.448.

Compared with GGCCGGCAUGGUCCCAGCCUCCUCGCUGGCGCCGACUGGGCAACAUUCCGAGGGGACCGUCCCCUCGGAAAUGGCGAAUGGGACCCA [G35A U69A], GGCCGGCAUGGUCCCAGCCUCCUCGCUGGCGCCGCCUGGGCAACAUUCCGAGGGGACCGUCCCCUCGGUAGUGGCGAAUGGGACCCA [G35C A71G] is lower in self-cleavage: 0.571 for the first, 0.262 for the second.

Going from GGCCGGCAUGGUCCCAGCCUCCUCGCUGGCGCCGCCUGGGCAACAUUCCGAGGGGACCGUCCCCUCGGUAUUGGCGAAUGGGACCCA [G35C A71U] to GGCCGGCAUGGUCCCAGCCUCCUCGCUGGCGCCGACUGGGCAACAUUCCGAGGGGAGCGUCCCCUCGGUAAUGGCGAAUGGGACCCA [G35A C57G], the self-cleavage rises from 0.128 to 0.684.

Compared with GGCCGGCAUGGUCCCAGCCUCCUCGCUGGCGCCGCCUGGGCAACGUUCCGAGGGGACCGUCCCCUCGGUAAUGGCGAAUGGGACCCA [G35C A45G], GGCCGGCAUGGUCCCAGCCUCCUCGCUGGCGCCGACUGGGCAACAUUCCGAGGGGACCGUUCCCUCGGUAAUGGCGAAUGGGACCCA [G35A C61U] is higher in self-cleavage: 0.237 for the first, 0.511 for the second.

First: GGCCGGCAUGGUCCCAGCCUCCUCGCUGGCGCCGCCUGGGCAACAUUCCGAGGGGACCGUCCCAUCGGUAAUGGCGAAUGGGACCCA [G35C C64A]
Second: GGCCGGCAUGGUCCCAGCCUCCUCGCUGGCGCCGCCUGGGCAACAUUCCCAGGGGACCGUCCCCUCGGUAAUGGCGAAUGGGACCCA [G35C G50C]
The self-cleavage of the first is higher: 0.113 for the first, 0.0923 for the second.

Compared with GGCCGGCAUGGUCCCAGCCUCCUCGCUGGCGCCGACUGGGCAACAUUCCGAGAGGACCGUCCCCUCGGUAAUGGCGAAUGGGACCCA [G35A G53A], GGCCGGCAUGGUCCCAGCCUCCUCGCUGGCGCCGACUGGGCAACAUUCCGAGGGGACCGGCCCCUCGGUAAUGGCGAAUGGGACCCA [G35A U60G] is higher in self-cleavage: 0.411 for the first, 0.554 for the second.

Compared with GGCCGGCAUGGUCCCAGCCUCCUCGCUGGCGCCGACUGGGCAACAUUCCGAGGGGACCGUCCCCUCGGUAAUGGCGAAUGGGACCAA [G35A C86A], GGCCGGCAUGGUCCCAGCCUCCUCGCUGGCGCCGACUGGGCAACAUUCCGAGGGGACCGUCCCCUCGGUAAUGGCGAACGGGACCCA [G35A U79C] is lower in self-cleavage: 0.643 for the first, 0.282 for the second.

First: GGCCGGCAUGGUCCCAGCCUCCUCGCUGGCGCCGACUGGGCAACAUACCGAGGGGACCGUCCCCUCGGUAAUGGCGAAUGGGACCCA [G35A U47A]
Second: GGCCGGCAUGGUCCCAGCCUCCUCGCUGGCGCCGACUGGGCAACAUUCCGAGGGGACCGUCCCCUCGGUAAUGGCGAAUGGGAGCCA [G35A C84G]
The self-cleavage of the first is higher: 0.466 for the first, 0.45 for the second.

Going from GGCCGGCAUGGUCCCAGCCUCCUCGCUGGCGCCGACUGGGCAACAUUCCGAGGGGACCGUCCCCUCGGUAAUGGCGAAUGAGACCCA [G35A G81A] to GGCCGGCAUGGUCCCAGCCUCCUCGCUGGCGCCGCCUGGGCAACAUUCCGCGGGGACCGUCCCCUCGGUAAUGGCGAAUGGGACCCA [G35C A51C], the self-cleavage rises from 0.277 to 0.297.

Compared with GGCCGGCAUGGUCCCAGCCUCCUCGCUGGCGCCGCCUGGGCAACAUUCCGGGGGGACCGUCCCCUCGGUAAUGGCGAAUGGGACCCA [G35C A51G], GGCCGGCAUGGUCCCAGCCUCCUCGCUGGCGCCGACUGGGCAACAUUCCGAGGGGACCCUCCCCUCGGUAAUGGCGAAUGGGACCCA [G35A G59C] is higher in self-cleavage: 0.415 for the first, 0.61 for the second.

Compared with GGCCGGCAUGGUCCCAGCCUCCUCGCUGGCGCCGACUGGGCAACAUUCCGAGGGGACCAUCCCCUCGGUAAUGGCGAAUGGGACCCA [G35A G59A], GGCCGGCAUGGUCCCAGCCUCCUCGCUGGCGCCGACUGGGCAACAUUCCGAGGGGACCUUCCCCUCGGUAAUGGCGAAUGGGACCCA [G35A G59U] is higher in self-cleavage: 0.494 for the first, 0.646 for the second.

Compared with GGCCGGCAUGGUCCCAGCCUCCUCGCUGGCGCCGCCUGGGCAACAUUCCGAGGGGACCGUCCCCUCGGUAAUGGCGAAUGGGACCGA [G35C C86G], GGCCGGCAUGGUCCCAGCCUCCUCGCUGGCGCCGACUGGGCAACAUUCCGAGGGGACCGUCCCCUCGGUAAUGUCGAAUGGGACCCA [G35A G74U] is higher in self-cleavage: 0.0489 for the first, 0.231 for the second.

Compared with GGCCGGCAUGGUCCCAGCCUCCUCGCUGGCGCCGACUGGGCAACAUUCCGAGGGGACCGUCCCCUUGGUAAUGGCGAAUGGGACCCA [G35A C66U], GGCCGGCAUGGUCCCAGCCUCCUCGCUGGCGCCGCCUGGGCAACAUUCCGAGGGGAACGUCCCCUCGGUAAUGGCGAAUGGGACCCA [G35C C57A] is lower in self-cleavage: 0.655 for the first, 0.302 for the second.

Compared with GGCCGGCAUGGUCCCAGCCUCCUCGCUGGCGCCGCCUGGGCAACAUUCCGAGGGGAGCGUCCCCUCGGUAAUGGCGAAUGGGACCCA [G35C C57G], GGCCGGCAUGGUCCCAGCCUCCUCGCUGGCGCCGCCUGGGCAACAUUCCGAGGGGACCGUCCCCUCGGUAAUGUCGAAUGGGACCCA [G35C G74U] is lower in self-cleavage: 0.201 for the first, 0.133 for the second.

Compared with GGCCGGCAUGGUCCCAGCCUCCUCGCUGGCGCCGCCUGGGCAACAUUCCGAGGGGACCGUCCCCUCGGUAAUCGCGAAUGGGACCCA [G35C G73C], GGCCGGCAUGGUCCCAGCCUCCUCGCUGGCGCCGACUGGGCAACAUUCCGAGGGGACCGUCCCUUCGGUAAUGGCGAAUGGGACCCA [G35A C64U] is higher in self-cleavage: 0.269 for the first, 0.475 for the second.

Source: the RNAGym collection of RNA variant scans (doi:10.7554/elife.80360)
